{"source": "the RNAGym collection of RNA variant scans (doi:10.7554/elife.80360)", "parents": {"B1": {"name": "Hairpin Ribozyme (parent)", "chain": "GUCCUCUUUCACGUGCGCGUGAAAGAGAGAAGUGAACCAGAGAAACACACGUUGUGGUAUAUUACCUGGUA"}}}
{"variants_of": "B1", "assay": "self-cleavage, relative activity (ratio to wild type); higher = more cleavage; co-transcriptional"}
{"variant": "A23U U52C", "self-cleavage": 0.677}
{"variant": "A23U U52A", "self-cleavage": 0.947}
{"variant": "A23C A45C", "self-cleavage": 0.0875}
{"variant": "A24C C48G", "self-cleavage": 0.133}
{"variant": "A23G U70A", "self-cleavage": 0.741}
{"variant": "A23C U58G", "self-cleavage": 0.674}
{"variant": "A23G A39U", "self-cleavage": 0.252}
{"variant": "A23G A39G", "self-cleavage": 0.353}
{"variant": "A23G A39C", "self-cleavage": 0.408}
{"variant": "A23C C65G", "self-cleavage": 0.186}
{"variant": "A24C A47U", "self-cleavage": 0.0898}
{"variant": "A23G A71G", "self-cleavage": 0.975}
{"variant": "A23G A71U", "self-cleavage": 0.634}
{"variant": "A23G C37U", "self-cleavage": 0.466}
{"variant": "A23G C50U", "self-cleavage": 0.43}
{"variant": "A23U C66A", "self-cleavage": 0.294}
{"variant": "A24C A31G", "self-cleavage": 0.66}
{"variant": "A23U A43C", "self-cleavage": 0.141}
{"variant": "A24C G42C", "self-cleavage": 0.342}
{"variant": "A24C G42A", "self-cleavage": 0.195}
{"variant": "A24C A45U", "self-cleavage": 0.0791}
{"variant": "A23U U55A", "self-cleavage": 0.255}
{"variant": "A23U U55G", "self-cleavage": 0.448}
{"variant": "A24C A35C", "self-cleavage": 0.778}
{"variant": "A24C A30U", "self-cleavage": 0.146}
{"variant": "A24C A30C", "self-cleavage": 0.242}
{"variant": "A23C U52A", "self-cleavage": 0.875}
{"variant": "A23G A59G", "self-cleavage": 0.184}
{"variant": "A23U C50U", "self-cleavage": 0.376}
{"variant": "A23C U67G", "self-cleavage": 0.27}
{"variant": "A24C A39C", "self-cleavage": 0.554}
{"variant": "A23U G32C", "self-cleavage": 0.231}
{"variant": "A23C U53A", "self-cleavage": 0.757}
{"variant": "A23C A39U", "self-cleavage": 0.269}
{"variant": "A23C A43G", "self-cleavage": 0.0715}
{"variant": "A23C A43C", "self-cleavage": 0.146}
{"variant": "A24C A59C", "self-cleavage": 0.209}
{"variant": "A24C A44C", "self-cleavage": 0.0908}
{"variant": "A23C C66G", "self-cleavage": 0.166}
{"variant": "A23C G56U", "self-cleavage": 0.1}
{"variant": "A23U A24C", "self-cleavage": 1.02}
{"variant": "A23G C38G", "self-cleavage": 0.186}
{"variant": "A24C C50G", "self-cleavage": 0.326}
{"variant": "A24C A28U", "self-cleavage": 0.592}
{"variant": "A24C A28G", "self-cleavage": 1.13}
{"variant": "A23G U63C", "self-cleavage": 0.148}
{"variant": "A23U G27C", "self-cleavage": 0.148}
{"variant": "A24C G29U", "self-cleavage": 0.0732}
{"variant": "A24C G29A", "self-cleavage": 0.0206}
{"variant": "A24C G29C", "self-cleavage": 0.208}
{"variant": "A23U A45C", "self-cleavage": 0.111}
{"variant": "A23U A31C", "self-cleavage": 0.147}
{"variant": "A23U A31G", "self-cleavage": 0.805}
{"variant": "A23C U33A", "self-cleavage": 0.109}
{"variant": "A23C G69C", "self-cleavage": 0.244}
{"variant": "A23C G69A", "self-cleavage": 0.379}
{"variant": "A23G G25C", "self-cleavage": 0.521}
{"variant": "A23G A49C", "self-cleavage": 0.159}
{"variant": "A23G A49G", "self-cleavage": 0.426}
{"variant": "A24C C38A", "self-cleavage": 0.228}
{"variant": "A24C A61C", "self-cleavage": 0.139}
{"variant": "A24C A61G", "self-cleavage": 0.156}
{"variant": "A24C A61U", "self-cleavage": 0.189}
{"variant": "A23U A30U", "self-cleavage": 0.0692}
{"variant": "A23C U63G", "self-cleavage": 0.273}
{"variant": "A23C U63A", "self-cleavage": 0.238}
{"variant": "A23C A49C", "self-cleavage": 0.136}
{"variant": "A23G G69A", "self-cleavage": 0.369}
{"variant": "A23U G40U", "self-cleavage": 0.134}
{"variant": "A23U G40C", "self-cleavage": 0.1}
{"variant": "A23G G40C", "self-cleavage": 0.16}
{"variant": "A23G A41G", "self-cleavage": 0.678}
{"variant": "A24C G34A", "self-cleavage": 0.895}
{"variant": "A23G C65G", "self-cleavage": 0.392}
{"variant": "A23C U55G", "self-cleavage": 0.359}
{"variant": "A23C U55A", "self-cleavage": 0.17}
{"variant": "A23U A35C", "self-cleavage": 0.848}
{"variant": "A23U A35G", "self-cleavage": 0.967}
{"variant": "A23U U70C", "self-cleavage": 0.909}
{"variant": "A23C A59U", "self-cleavage": 0.174}
{"variant": "A23U C46A", "self-cleavage": 0.224}
{"variant": "A23U C46G", "self-cleavage": 0.0441}
{"variant": "A23G U60A", "self-cleavage": 0.694}
{"variant": "A23C G51C", "self-cleavage": 0.804}
{"variant": "A23C G51A", "self-cleavage": 0.83}
{"variant": "A23G U52C", "self-cleavage": 0.713}
{"variant": "A23G U52A", "self-cleavage": 0.899}
{"variant": "A23U U33C", "self-cleavage": 0.144}
{"variant": "A23C G68A", "self-cleavage": 0.26}
{"variant": "A23U G57C", "self-cleavage": 0.211}
{"variant": "A23U G57U", "self-cleavage": 0.307}
{"variant": "A24C A49G", "self-cleavage": 0.535}
{"variant": "A23U U62C", "self-cleavage": 0.247}
{"variant": "A23U U62G", "self-cleavage": 0.171}
{"variant": "A23C G34A", "self-cleavage": 1.1}
{"variant": "A23C G34U", "self-cleavage": 1.14}
{"variant": "A23C G34C", "self-cleavage": 1.26}
{"variant": "A24C A64G", "self-cleavage": 0.503}
{"variant": "A23G A31U", "self-cleavage": 0.0848}
{"variant": "A23U C48A", "self-cleavage": 0.157}
{"variant": "A23G A44U", "self-cleavage": 0.0965}
{"variant": "A23G U58C", "self-cleavage": 0.847}
{"variant": "A24C G57U", "self-cleavage": 0.14}
{"variant": "A24C G57C", "self-cleavage": 0.131}
{"variant": "A23G G54A", "self-cleavage": 0.489}
{"variant": "A23U A71G", "self-cleavage": 0.876}
{"variant": "A23G A24C", "self-cleavage": 0.648}
{"variant": "A23G A24U", "self-cleavage": 0.651}
{"variant": "A24C A43G", "self-cleavage": 0.157}
{"variant": "A24C A43C", "self-cleavage": 0.0956}
{"variant": "A23C C37G", "self-cleavage": 0.159}
{"variant": "A23U A39U", "self-cleavage": 0.385}
{"variant": "A23U A39G", "self-cleavage": 0.298}
{"variant": "A23G G34U", "self-cleavage": 1.29}
{"variant": "A24C C37A", "self-cleavage": 0.352}
{"variant": "A23U A36C", "self-cleavage": 0.596}
{"variant": "A23C C48G", "self-cleavage": 0.0948}
{"variant": "A23C C48U", "self-cleavage": 0.202}
{"variant": "A23C C48A", "self-cleavage": 0.0725}
{"variant": "A24C A26G", "self-cleavage": 0.835}
{"variant": "A24C A26C", "self-cleavage": 0.338}
{"variant": "A24C A26U", "self-cleavage": 0.463}
{"variant": "A23G A36C", "self-cleavage": 0.69}
{"variant": "A23G U53G", "self-cleavage": 0.706}
{"variant": "A24C G25C", "self-cleavage": 0.315}
{"variant": "A23C A41U", "self-cleavage": 0.911}
{"variant": "A23C A41C", "self-cleavage": 0.948}
{"variant": "A24C G27C", "self-cleavage": 0.228}
{"variant": "A24C A41U", "self-cleavage": 0.996}
{"variant": "A24C A41C", "self-cleavage": 1.01}
{"variant": "A23U G29U", "self-cleavage": 0.142}
{"variant": "A23C A36G", "self-cleavage": 1.08}
{"variant": "A23G A28U", "self-cleavage": 0.417}
{"variant": "A23C G25C", "self-cleavage": 0.147}
{"variant": "A23C G25U", "self-cleavage": 0.172}
{"variant": "A24C A36U", "self-cleavage": 0.556}
{"variant": "A23U A59U", "self-cleavage": 0.189}
{"variant": "A23U A59C", "self-cleavage": 0.0742}
{"variant": "A23U A49C", "self-cleavage": 0.117}
{"variant": "A23U G69A", "self-cleavage": 0.335}
{"variant": "A23U G69C", "self-cleavage": 0.325}
{"variant": "A23C U62A", "self-cleavage": 0.229}
{"variant": "A23U G34U", "self-cleavage": 1.34}
{"variant": "A23C U70C", "self-cleavage": 1.06}
{"variant": "A23G G57U", "self-cleavage": 0.142}
{"variant": "A23C A35U", "self-cleavage": 0.559}
{"variant": "A23U A41G", "self-cleavage": 0.749}
{"variant": "A23G A61U", "self-cleavage": 0.138}
{"variant": "A23C C46A", "self-cleavage": 0.131}
{"variant": "A23U C37A", "self-cleavage": 0.324}
{"variant": "A23U C65G", "self-cleavage": 0.159}
{"variant": "A23G G27U", "self-cleavage": 0.254}
{"variant": "A24C A71U", "self-cleavage": 0.696}
{"variant": "A23G A26U", "self-cleavage": 0.842}
{"variant": "A23C G57C", "self-cleavage": 0.192}
{"variant": "A23C G57U", "self-cleavage": 0.29}
{"variant": "A23G A43U", "self-cleavage": 0.184}
{"variant": "A23G A43G", "self-cleavage": 0.0591}
{"variant": "A23U C38U", "self-cleavage": 0.312}
{"variant": "A23U U60A", "self-cleavage": 0.819}
{"variant": "A23U A61U", "self-cleavage": 0.0982}
{"variant": "A23G G56A", "self-cleavage": 0.186}
{"variant": "A23U A64C", "self-cleavage": 0.221}
{"variant": "A23U A64G", "self-cleavage": 0.474}
{"variant": "A23U A64U", "self-cleavage": 0.178}
{"variant": "A24C G51U", "self-cleavage": 0.878}
{"variant": "A23G G51U", "self-cleavage": 1.01}
